The record followed here is PMC10786891, “Massively parallel profiling of RNA-targeting CRISPR-Cas13d”.

B1: target 1 insG 3' of 20,insA 3' of 11 (mixed)
RNA 1: CACCCGUGCAAAAAUGCAGGGGUCUAAAACUGAGCGGAUAACCUCUCUAUGG
RNA 2: GGGAAUGGAUCCACAUCUACGAAUUCGUACCAGUAGAGAGGUAUAUCCGCUCACCGAGAUCGGAAGAGCACACGU
B2: target 1 C2A,U3A (mixed)
RNA 1: CACCCGUGCAAAAAUGCAGGGGUCUAAAACUGAGCGGAUAACCUCUCUAUGG
RNA 2: GGGAAUGGAUCCACAUCUACGAAUUCGUACCAUAGAGAGGUUAUCCGCAAACCGAGAUCGGAAGAGCACACGU
B3: target 1 insU 3' of 15,insU 3' of 6 (mixed)
RNA 1: CACCCGUGCAAAAAUGCAGGGGUCUAAAACUGAGCGGAUAACCUCUCUAUGG
RNA 2: GGGAAUGGAUCCACAUCUACGAAUUCGUACCAUAGAGUAGGUUAUCCUGCUCACCGAGAUCGGAAGAGCACACGU
B4: target 1 C4G,C22G (mixed)
RNA 1: CACCCGUGCAAAAAUGCAGGGGUCUAAAACUGAGCGGAUAACCUCUCUAUGG
RNA 2: GGGAAUGGAUCCACAUCUACGAAUUCGUAGCAUAGAGAGGUUAUCCGGUCACCGAGAUCGGAAGAGCACACGU
B5: target 1 insG 3' of 16,insC 3' of 3 (mixed)
RNA 1: CACCCGUGCAAAAAUGCAGGGGUCUAAAACUGAGCGGAUAACCUCUCUAUGG
RNA 2: GGGAAUGGAUCCACAUCUACGAAUUCGUACCAUAGAGGAGGUUAUCCGCUCCACCGAGAUCGGAAGAGCACACGU
B6: target 1 insA 3' of 22,insG 3' of 4 (mixed)
RNA 1: CACCCGUGCAAAAAUGCAGGGGUCUAAAACUGAGCGGAUAACCUCUCUAUGG
RNA 2: GGGAAUGGAUCCACAUCUACGAAUUCGUACACAUAGAGAGGUUAUCCGCGUCACCGAGAUCGGAAGAGCACACGU
B7: target 1 insC 3' of 13,insC 3' of 3 (mixed)
RNA 1: CACCCGUGCAAAAAUGCAGGGGUCUAAAACUGAGCGGAUAACCUCUCUAUGG
RNA 2: GGGAAUGGAUCCACAUCUACGAAUUCGUACCAUAGAGAGCGUUAUCCGCUCCACCGAGAUCGGAAGAGCACACGU
B8: target 1 insU 3' of 20,insU 3' of 18 (mixed)
RNA 1: CACCCGUGCAAAAAUGCAGGGGUCUAAAACUGAGCGGAUAACCUCUCUAUGG
RNA 2: GGGAAUGGAUCCACAUCUACGAAUUCGUACCAUUAUGAGAGGUUAUCCGCUCACCGAGAUCGGAAGAGCACACGU
B9: target 1 insU 3' of 22,insG 3' of 2 (mixed)
RNA 1: CACCCGUGCAAAAAUGCAGGGGUCUAAAACUGAGCGGAUAACCUCUCUAUGG
RNA 2: GGGAAUGGAUCCACAUCUACGAAUUCGUACUCAUAGAGAGGUUAUCCGCUCGACCGAGAUCGGAAGAGCACACGU
B10: target 1 insU 3' of 20,insU 3' of 4 (mixed)
RNA 1: CACCCGUGCAAAAAUGCAGGGGUCUAAAACUGAGCGGAUAACCUCUCUAUGG
RNA 2: GGGAAUGGAUCCACAUCUACGAAUUCGUACCAUUAGAGAGGUUAUCCGCUUCACCGAGAUCGGAAGAGCACACGU
B11: target 1 C4U,C7G (mixed)
RNA 1: CACCCGUGCAAAAAUGCAGGGGUCUAAAACUGAGCGGAUAACCUCUCUAUGG
RNA 2: GGGAAUGGAUCCACAUCUACGAAUUCGUACCAUAGAGAGGUUAUGCGUUCACCGAGAUCGGAAGAGCACACGU
B12: target 1 G15A,G17A (mixed)
RNA 1: CACCCGUGCAAAAAUGCAGGGGUCUAAAACUGAGCGGAUAACCUCUCUAUGG
RNA 2: GGGAAUGGAUCCACAUCUACGAAUUCGUACCAUAAAAAGGUUAUCCGCUCACCGAGAUCGGAAGAGCACACGU
B13: target 1 insA 3' of 17,insG 3' of 1 (mixed)
RNA 1: CACCCGUGCAAAAAUGCAGGGGUCUAAAACUGAGCGGAUAACCUCUCUAUGG
RNA 2: GGGAAUGGAUCCACAUCUACGAAUUCGUACCAUAGAAGAGGUUAUCCGCUCAGCCGAGAUCGGAAGAGCACACGU
B14: target 1 insU 3' of 21,insA 3' of 19 (mixed)
RNA 1: CACCCGUGCAAAAAUGCAGGGGUCUAAAACUGAGCGGAUAACCUCUCUAUGG
RNA 2: GGGAAUGGAUCCACAUCUACGAAUUCGUACCUAUAAGAGAGGUUAUCCGCUCACCGAGAUCGGAAGAGCACACGU
B15: target 1 U11C,A14C (mixed)
RNA 1: CACCCGUGCAAAAAUGCAGGGGUCUAAAACUGAGCGGAUAACCUCUCUAUGG
RNA 2: GGGAAUGGAUCCACAUCUACGAAUUCGUACCAUAGAGCGGCUAUCCGCUCACCGAGAUCGGAAGAGCACACGU
B16: target 1 insA 3' of 17,insC 3' of 1 (mixed)
RNA 1: CACCCGUGCAAAAAUGCAGGGGUCUAAAACUGAGCGGAUAACCUCUCUAUGG
RNA 2: GGGAAUGGAUCCACAUCUACGAAUUCGUACCAUAGAAGAGGUUAUCCGCUCACCCGAGAUCGGAAGAGCACACGU
B17: target 1 insA 3' of 15,insC 3' of 3 (mixed)
RNA 1: CACCCGUGCAAAAAUGCAGGGGUCUAAAACUGAGCGGAUAACCUCUCUAUGG
RNA 2: GGGAAUGGAUCCACAUCUACGAAUUCGUACCAUAGAGAAGGUUAUCCGCUCCACCGAGAUCGGAAGAGCACACGU
B18: target 1 insG 3' of 7,insU 3' of 1 (mixed)
RNA 1: CACCCGUGCAAAAAUGCAGGGGUCUAAAACUGAGCGGAUAACCUCUCUAUGG
RNA 2: GGGAAUGGAUCCACAUCUACGAAUUCGUACCAUAGAGAGGUUAUCGCGCUCAUCCGAGAUCGGAAGAGCACACGU
B19: target 1 A9U,G17A (mixed)
RNA 1: CACCCGUGCAAAAAUGCAGGGGUCUAAAACUGAGCGGAUAACCUCUCUAUGG
RNA 2: GGGAAUGGAUCCACAUCUACGAAUUCGUACCAUAAAGAGGUUUUCCGCUCACCGAGAUCGGAAGAGCACACGU
B20: target 1 C6U,G15C (mixed)
RNA 1: CACCCGUGCAAAAAUGCAGGGGUCUAAAACUGAGCGGAUAACCUCUCUAUGG
RNA 2: GGGAAUGGAUCCACAUCUACGAAUUCGUACCAUAGACAGGUUAUCUGCUCACCGAGAUCGGAAGAGCACACGU
B21: target 1 U3A,U19G (mixed)
RNA 1: CACCCGUGCAAAAAUGCAGGGGUCUAAAACUGAGCGGAUAACCUCUCUAUGG
RNA 2: GGGAAUGGAUCCACAUCUACGAAUUCGUACCAGAGAGAGGUUAUCCGCACACCGAGAUCGGAAGAGCACACGU
B22: target 1 insG 3' of 16,insG 3' of 6 (mixed)
RNA 1: CACCCGUGCAAAAAUGCAGGGGUCUAAAACUGAGCGGAUAACCUCUCUAUGG
RNA 2: GGGAAUGGAUCCACAUCUACGAAUUCGUACCAUAGAGGAGGUUAUCCGGCUCACCGAGAUCGGAAGAGCACACGU
B23: target 1 C4G,C7A (mixed)
RNA 1: CACCCGUGCAAAAAUGCAGGGGUCUAAAACUGAGCGGAUAACCUCUCUAUGG
RNA 2: GGGAAUGGAUCCACAUCUACGAAUUCGUACCAUAGAGAGGUUAUACGGUCACCGAGAUCGGAAGAGCACACGU
B24: target 1 C4G,A18C (mixed)
RNA 1: CACCCGUGCAAAAAUGCAGGGGUCUAAAACUGAGCGGAUAACCUCUCUAUGG
RNA 2: GGGAAUGGAUCCACAUCUACGAAUUCGUACCAUCGAGAGGUUAUCCGGUCACCGAGAUCGGAAGAGCACACGU
B25: target 1 U10G,G13A (mixed)
RNA 1: CACCCGUGCAAAAAUGCAGGGGUCUAAAACUGAGCGGAUAACCUCUCUAUGG
RNA 2: GGGAAUGGAUCCACAUCUACGAAUUCGUACCAUAGAGAAGUGAUCCGCUCACCGAGAUCGGAAGAGCACACGU
B26: target 1 insU 3' of 17,insC 3' of 10 (mixed)
RNA 1: CACCCGUGCAAAAAUGCAGGGGUCUAAAACUGAGCGGAUAACCUCUCUAUGG
RNA 2: GGGAAUGGAUCCACAUCUACGAAUUCGUACCAUAGUAGAGGUUCAUCCGCUCACCGAGAUCGGAAGAGCACACGU
B27: target 1 insA 3' of 17,insA 3' of 2 (mixed)
RNA 1: CACCCGUGCAAAAAUGCAGGGGUCUAAAACUGAGCGGAUAACCUCUCUAUGG
RNA 2: GGGAAUGGAUCCACAUCUACGAAUUCGUACCAUAGAAGAGGUUAUCCGCUCAACCGAGAUCGGAAGAGCACACGU

This series addresses T1, EsCas13d, nuclease-dead (Eubacterium siraeum, UniProt B0MS50, R295A;H300A;R849A;H854A).
T1 sequence: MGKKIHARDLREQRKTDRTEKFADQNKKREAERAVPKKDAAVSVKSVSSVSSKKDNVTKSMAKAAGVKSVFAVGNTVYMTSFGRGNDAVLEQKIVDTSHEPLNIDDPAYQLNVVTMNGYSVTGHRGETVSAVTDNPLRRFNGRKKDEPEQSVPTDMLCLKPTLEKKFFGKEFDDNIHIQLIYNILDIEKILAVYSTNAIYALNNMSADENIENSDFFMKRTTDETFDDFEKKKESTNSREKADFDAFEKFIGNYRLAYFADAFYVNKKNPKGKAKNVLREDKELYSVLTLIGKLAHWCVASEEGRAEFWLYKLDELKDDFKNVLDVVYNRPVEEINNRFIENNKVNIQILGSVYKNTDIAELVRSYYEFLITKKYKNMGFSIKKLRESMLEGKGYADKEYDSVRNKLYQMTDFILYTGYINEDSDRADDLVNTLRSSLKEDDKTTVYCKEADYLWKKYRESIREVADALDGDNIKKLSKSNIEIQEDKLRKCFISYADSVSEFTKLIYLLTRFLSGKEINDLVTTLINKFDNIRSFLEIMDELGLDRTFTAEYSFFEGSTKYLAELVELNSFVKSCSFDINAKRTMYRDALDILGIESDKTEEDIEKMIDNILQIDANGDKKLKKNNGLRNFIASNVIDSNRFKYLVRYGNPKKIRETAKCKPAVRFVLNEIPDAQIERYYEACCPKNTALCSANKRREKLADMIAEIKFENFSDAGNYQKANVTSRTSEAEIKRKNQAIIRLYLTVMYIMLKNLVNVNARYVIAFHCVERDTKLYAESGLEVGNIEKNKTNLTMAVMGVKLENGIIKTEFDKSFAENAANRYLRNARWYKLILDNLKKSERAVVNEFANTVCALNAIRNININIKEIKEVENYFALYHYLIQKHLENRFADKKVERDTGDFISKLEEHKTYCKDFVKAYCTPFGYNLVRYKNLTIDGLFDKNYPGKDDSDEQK
The series can be described thus: crRNA (strand 1, pre-loaded); Mg2+; 40 mM Tris-HCl pH 7.5, 150 mM NaCl, 6 mM MgCl2, 1 mM DTT, 0.1% Tween-20, 0.2 mg/ml BSA; 25 C; 10 min per concentration, then washed. The note with it: tags: His6-TwinStrep-SUMO cleaved; N-terminal SNAP kept (SNAP-Surface 488); label: 3' end held by stalled T7 RNA polymerase.
B1 came in with a Kd of 75 ± 33 nM.
The value for B2 was 10 ± 0.8 nM; that for B3 was 35.6 ± 3.2 nM; that for B4 was 16.1 ± 2.3 nM.
The value for B5 was 12.4 ± 0.6 nM; that for B6 was 9.6 ± 0.6 nM; that for B7 was 13.8 ± 0.7 nM.
Molecule B8 registered a Kd of 33 ± 5 nM.
B9 had a Kd of 29.1 ± 1.8 nM.
B10 displayed a Kd of 10.6 ± 1.2 nM.
Under B11 stands 10.4 ± 0.4 nM; under B12, 80 ± 15 nM; under B13, 17.6 ± 1.7 nM.
The value for B14 was 55 ± 10 nM; that for B15 was 86 ± 22 nM; that for B16 was 12.2 ± 1.2 nM.
Turning to B17, the Kd was determined as 10.1 ± 1.3 nM.
As to B18, binding was put at a Kd of 7.3 ± 0.5 nM.
The molecule B19 gave a Kd of 41 ± 5 nM.
As for B20, the Kd stood at 62 ± 7 nM.
Under B21 stands 50 ± 5 nM; under B22, 24.3 ± 1.9 nM; under B23, 7.1 ± 0.4 nM.
The value for B24 was 44 ± 7 nM; that for B25 was 42 ± 15 nM; that for B26 was about 50 nM.
Take B27: the Kd turned out to be 13.8 ± 0.7 nM.
